How the values were obtained:
SEC = target: the molecule itself; experiment: SEC
[1] = target: human hepatic cytochrome P450 CYP3A4 in POPC Nanodiscs (human) (UniProt P08684); experiment: SEC
[2] = target: human hepatic cytochrome P450 CYP3A4 in POPC Nanodiscs (human) (UniProt P08684); experiment: steady-state enzyme activity titration

- stoichiometry N (CPR per CYP3A4) [1]: 1
- Kd [2]: 10 to 50 nM
B1: full-length rat NADPH dependent cytochrome P450 reductase (enzyme, UniProt P00388 1-678, looked up)
chain: MGDSHEDTSATMPEAVAEEVSLFSTTDMVLFSLIVGVLTYWFIFRKKKEEIPEFSKIQTTAPPVKESSFVEKMKKTGRNIIVFYGSQTGTAEEFANRLSKDAHRYGMRGMSADPEEYDLADLSSLPEIDKSLVVFCMATYGEGDPTDNAQDFYDWLQETDVDLTGVKFAVFGLGNKTYEHFNAMGKYVDQRLEQLGAQRIFELGLGDDDGNLEEDFITWREQFWPAVCEFFGVEATGEESSIRQYELVVHEDMDVAKVYTGEMGRLKSYENQKPPFDAKNPFLAAVTANRKLNQGTERHLMHLELDISDSKIRYESGDHVAVYPANDSALVNQIGEILGADLDVIMSLNNLDEESNKKHPFPCPTTYRTALTYYLDITNPPRTNVLYELAQYASEPSEQEHLHKMASSSGEGKELYLSWVVEARRHILAILQDYPSLRPPIDHLCELLPRLQARYYSIASSSKVHPNSVHICAVAVEYEAKSGRVNKGVATSWLRAKEPAGENGGRALVPMFVRKSQFRLPFKSTTPVIMVGPGTGIAPFMGFIQERAWLREQGKEVGETLLYYGCRRSDEDYLYREELARFHKDGALTQLNVAFSREQAHKVYVQHLLKRDREHLWKLIHEGGAHIYVCGDARNMAKDVQNTFYDIVAEFGPMEHTQAVDYVKKLMTKGRYSLDVWS
- binding result (SEC): binds

From paper PMC4103192 (Biochemical and biophysical research communications, 2010)
